Laboratory results: patent publication US20030108998

Target: purified bovine aggrecan monomers isolated from bovine nasal cartilage, P13608
Sequence (P13608 17-2364): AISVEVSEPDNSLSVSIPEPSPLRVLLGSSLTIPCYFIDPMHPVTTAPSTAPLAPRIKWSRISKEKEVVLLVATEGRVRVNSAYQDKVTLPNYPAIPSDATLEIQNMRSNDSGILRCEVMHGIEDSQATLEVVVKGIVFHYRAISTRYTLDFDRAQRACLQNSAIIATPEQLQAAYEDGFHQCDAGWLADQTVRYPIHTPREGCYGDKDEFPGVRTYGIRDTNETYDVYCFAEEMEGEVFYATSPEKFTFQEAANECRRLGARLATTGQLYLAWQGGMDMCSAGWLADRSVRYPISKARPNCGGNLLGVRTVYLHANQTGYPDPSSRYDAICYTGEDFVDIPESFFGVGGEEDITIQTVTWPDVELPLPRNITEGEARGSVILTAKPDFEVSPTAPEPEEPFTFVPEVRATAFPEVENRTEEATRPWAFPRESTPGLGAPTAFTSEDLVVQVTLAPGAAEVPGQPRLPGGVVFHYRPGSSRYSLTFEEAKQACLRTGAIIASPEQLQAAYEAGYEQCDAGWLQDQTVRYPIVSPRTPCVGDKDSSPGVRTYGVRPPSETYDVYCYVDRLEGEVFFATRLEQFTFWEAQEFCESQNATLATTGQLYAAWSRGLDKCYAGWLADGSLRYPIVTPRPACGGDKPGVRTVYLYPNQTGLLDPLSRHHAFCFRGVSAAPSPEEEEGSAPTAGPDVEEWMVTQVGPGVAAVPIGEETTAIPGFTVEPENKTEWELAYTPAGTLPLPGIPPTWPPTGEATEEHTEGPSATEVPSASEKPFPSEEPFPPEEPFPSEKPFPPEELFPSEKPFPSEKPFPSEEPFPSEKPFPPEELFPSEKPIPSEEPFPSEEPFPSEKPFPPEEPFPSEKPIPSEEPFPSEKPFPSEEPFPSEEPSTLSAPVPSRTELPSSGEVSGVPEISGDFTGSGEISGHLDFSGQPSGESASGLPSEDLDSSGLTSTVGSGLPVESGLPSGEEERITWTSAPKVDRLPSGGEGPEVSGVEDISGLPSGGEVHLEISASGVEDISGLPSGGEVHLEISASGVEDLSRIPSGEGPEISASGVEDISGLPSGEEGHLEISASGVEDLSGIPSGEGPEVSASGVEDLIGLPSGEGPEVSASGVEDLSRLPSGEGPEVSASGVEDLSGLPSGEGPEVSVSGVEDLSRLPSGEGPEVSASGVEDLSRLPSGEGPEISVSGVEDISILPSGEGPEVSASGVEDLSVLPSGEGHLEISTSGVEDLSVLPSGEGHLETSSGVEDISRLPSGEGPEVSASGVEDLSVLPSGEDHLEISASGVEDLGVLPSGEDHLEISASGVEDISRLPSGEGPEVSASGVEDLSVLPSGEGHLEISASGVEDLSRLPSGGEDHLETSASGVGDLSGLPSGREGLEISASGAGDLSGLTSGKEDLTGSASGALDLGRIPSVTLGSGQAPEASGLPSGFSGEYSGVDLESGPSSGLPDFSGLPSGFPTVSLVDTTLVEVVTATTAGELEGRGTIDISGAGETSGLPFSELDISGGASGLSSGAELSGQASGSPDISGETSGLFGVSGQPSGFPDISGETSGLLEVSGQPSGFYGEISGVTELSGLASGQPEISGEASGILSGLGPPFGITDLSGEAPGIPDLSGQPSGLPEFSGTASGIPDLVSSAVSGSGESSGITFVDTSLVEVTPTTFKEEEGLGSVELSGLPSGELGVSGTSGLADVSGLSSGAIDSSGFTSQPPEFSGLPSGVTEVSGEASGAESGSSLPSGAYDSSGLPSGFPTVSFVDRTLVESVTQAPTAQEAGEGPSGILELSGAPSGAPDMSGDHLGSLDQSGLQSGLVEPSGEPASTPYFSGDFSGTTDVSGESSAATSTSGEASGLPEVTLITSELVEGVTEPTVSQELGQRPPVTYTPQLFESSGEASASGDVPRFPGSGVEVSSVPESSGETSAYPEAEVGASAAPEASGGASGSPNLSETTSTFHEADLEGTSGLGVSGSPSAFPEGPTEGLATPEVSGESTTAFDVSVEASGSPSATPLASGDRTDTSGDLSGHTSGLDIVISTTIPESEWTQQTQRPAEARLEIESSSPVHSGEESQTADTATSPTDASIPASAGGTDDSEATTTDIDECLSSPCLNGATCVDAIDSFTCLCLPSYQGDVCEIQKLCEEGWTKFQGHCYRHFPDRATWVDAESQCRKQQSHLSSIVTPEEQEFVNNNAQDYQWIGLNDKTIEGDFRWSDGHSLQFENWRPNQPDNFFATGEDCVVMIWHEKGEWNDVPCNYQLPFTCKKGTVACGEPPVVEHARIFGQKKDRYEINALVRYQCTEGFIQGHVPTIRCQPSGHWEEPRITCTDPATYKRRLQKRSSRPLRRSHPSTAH

B1: ADMP-1 (aggrecan degrading metallo protease 1), 67 kDa active form purified from conditioned media of IL-1-stimulated bovine nasal cartilage (protein)
chain: FASLSRFVETLVVADDKMAAFHGAGLKRYLLTVMAAAAKAFKHPSIRNPVSLVVTRLVVLGPGEEGPQVGPSAAQTLRSFCAWQRGLNTPDDADPGHFDTAILFTRQDLCGVSTCDTLGMADVGTVCDPARSCAIVEDDGLQSAFTAAHELGHVFSMLHDNSKQCTGLNGPESTSRHVMAPVMAHVDPEEPWSPCSARFITDFLDNGFGHCLLDKPEAPLHLPVTFPGKDYDADRQCQLTFGPDSRHCPQLPPPCAALWCSGHLNGHAMCQTKHSPWADGTPCGPAQACMGGRCLHVDQLQAFNVPQAGGWGPWGSWGDCSRSCGGGVQFSSRDCTRPVPRNGGKYCEGRRTRFRSCNTQDCPTGSALTFREEQCAAYNHRTDLFKNFPGPMDWVPRYTGVAPRDQCKLTCQTRALGYYYVLDPRVADGTPCSPDSSSVCVQGRCIHAGCDRVIGSKKKFDKCMVCGGDGSSCSKQSGSFKKFRYGYNNVVTIPAGATHILVRQQGSPSVRSLYLALKLPDGSYALNGEYTLIPSPTDVVLPGAVSLRYSGATAASETLSGHGPLAEPLTLQVLVAGNPQNARLRYSFFVPRPRPVPSTPRPTPQDWLRRKSQILEILRRRSWAGRK
With B1 the “ADMP activity (incubation with aggrecan substrate, products monitored with the BC-3 antibody)” value was “The region of the gel containing the 67 kDa ADMP-1 protein exhibited activity while that of the control portion of the gel did not” and the “cleavage of aggrecan at Glu373-Ala374, detected as BC-3-reactive fragments (Western blot)” value was “Incubation of the GuHCl-eluted ADMP-1 with isolated bovine aggrecan produced a pattern of BC-3-reactive fragments similar to that produced upon cleavage of cartilage aggrecan by endogenous aggrecanase”.
